Tests used:
A. fumigatus = assay: Inflammatory response in BALFs after i.t. injection of Sap-opsonised conidia; format: in vivo; settings: Apcs−/− mice, 16 h
Description: FIG. 5 depicts the rescue of susceptibility to A. fumigatus in SAP-deficient mice. a) b) c) d) i.t. injection of non-opsonised or Sap-opsonised AF conidia. a) survival of wt and Apcs^−/− mice. Wt, n=10; wt+Sap, n=10; Apcs^−/−, n=14; Apcs^−/−+Sap, n=13.****, P<0.0001, wt vs. Apcs^−/− or Apcs^−/− vs. Apcs^−/−+Sap (Mantel-Cox test). b) and c) levels of TNF-α (b) and MPO (c) in BALFs of mice (16 h). b),****, P<0.0001;**, P<0.01. c),***, P<0.0005. d, FACS analysis of neutrophil recruitment in lung (16 h). Mean±SEM.****, P<0.0001;*, P<0.05. b), c), d), Mean±SEM; Mann-Whitney test.
BALFs collection and analysis. BALFs were performed with 1.5 ml PBS, pH 7.4, containing protease inhibitors (Complete tablets, Roche Diagnostic; PMSF, Sigma-Aldrich) and 10 mM EDTA (Sigma-Aldrich) with a 22-gauge venous catheter. BALFs were centrifuged, and supernatants were collected for quantification of total protein content with Bradford's assay (Bio-RAD) and cytokines as described below. After erythrocyte lysis with ACK solution (pH 7.2; NH4Cl 0.15 M, KHCO3 10 mM, EDTA 0.1 mM), cells were resuspended in PBS, pH 7.4, containing 10 mM EDTA and 1% heat-inactivated fetal bovine serum (FCS; Sigma-Aldrich), stained with live and death dye (ThermoFisher Scientific-Molecular Probes) and analysed by BD FACS Canto™ II Flow Cytometer (BD Biosciences) with the following specific antibodies: peridinin chlorophyll protein complex (PerCP)—or brilliant violet (BV) 650-labelled anti-CD45 (#30-F11, IgG2b; 4 μg/ml); FITC- or phycoerythrin (PE)-CF594-labelled anti-Ly6G (#1A8, IgG2a; 4 μg/ml); allophycocyanin (APC)—or BV421-labelled anti-CD11b (#M 1/70, RUO, IgG2b; 1 μg/ml) (all from BD Biosciences).
Proteins. A recombinant murine SAP from mouse myeloma cell line NSO was used (R&D Systems). Native SAP from human serum was purchased by Merck-Millipore. […] Purity of the recombinant protein was assessed by SDS-PAGE followed by silver staining. […] SAP levels were measured in mouse plasma by ELISA (DuoSet ELISA; R&D Systems). Murine TNF-α, CCL2, MPO were measured by ELISA (DuoSet ELISA; R&D Systems). […]

[1] = tested on: complement activation on A. fumigatus conidia; assay: Complement C3 deposition on A. fumigatus conidia and C5a formation in mouse plasma; format: biochemical; settings: Sap-opsonised conidia
Description: FIG. 6 depicts the effect of SAP on complement activation on A. fumigatus. a) FACS analysis of plasma C3 deposition on AF conidia (1×10^7) opsonized or not with Sap. b) plasma C5a levels after incubation with AF conidia shown in a. a) and b) n=10 mouse plasma/genotype. b) representative experiment out of three performed. a) and b) Mean±SEM.*, P<0.05;**, P<0.01;***, P<0.005;****, P<0.0001 (unpaired t-test).
Complement deposition on Aspergillus fumigatus. A volume of 10 μl PBS, pH 7.4, containing 1×10^7 conidia eventually opsonized with murine SAP (100 μg/ml per 1×10^9 conidia, 1 h at r.t.) was incubated (37° C.) in round bottom wells of Corning® 96-well polypropylene microplates for the indicated time points with 20 μl mouse plasma-heparin or 20 μl human NS and complement depleted sera (diluted in PBS at 10% and 30%). Complement deposition was blocked by addition of EDTA (10 mM final concentration) and by cooling in ice. After centrifugation (2000 rpm, 10 min at 4° C.), when indicated supernatant was collected for C5a measurement by ELISA. […] Conidia were then incubated (1 h, at 4° C.) with Alexa Fluor® 488 and 647-conjugated species-specific cross-adsorbed detection antibodies (2 μg/ml; ThermoFisher Scientific-Molecular Probes) and analysed by BD FACS Canto™ II Flow Cytometer (BD Biosciences) using forward and side scatter parameters to gate on at least 8,000 conidia. […] Results were expressed as frequency of conidia showing fluorescence compared with irrelevant controls and as geometric conidia MFI.
Proteins. […] Purity of the recombinant protein was assessed by SDS-PAGE followed by silver staining. […] SAP levels were measured in mouse plasma by ELISA (DuoSet ELISA; R&D Systems). Murine TNF-α, CCL2, MPO were measured by ELISA (DuoSet ELISA; R&D Systems). Murine C5a was measured either in plasma-heparin or in BALFs previously stored at −80° C. by DuoSet ELISA (R&D Systems) maintaining EDTA (10 mM) throughout the assay in order to stop the activation of the complement cascade.

B1: recombinant murine SAP: recombinant murine SAP from mouse myeloma cell line NSO (R&D Systems) (protein, UniProt P12246 21-224, looked up)
Serum amyloid P-component: QTDLKRKVFVFPRESETDHVKLIPHLEKPLQNFTLCFRTYSDLSRSQSLFSYSVKGRDNELLIYKEKVGEYSLYIGQSKVTVRGMEEYLSPVHLCTTWESSSGIVEFWVNGKPWVKKSLQREYTVKAPPSIVLGQEQDNYGGGFQRSQSFVGEFSDLYMWDYVLTPQDILFVYRDSPVNPNILNWQALNYEINGYVVIRPRVWD
For B1, the “MPO level in BALFs” value (A. fumigatus) was “normalized”, the “TNF-α level in BALFs” value (A. fumigatus) was “normalized” and the “neutrophil number in BALFs” value (A. fumigatus) was “normalized”. For the same molecule, the “in vitro C3 deposition on A. fumigatus conidia” value ([1]; Apcs−/− and wt plasma) was “rescued or increased”, the C5a formation ([1]; Apcs−/− plasma, 1, 5, 10, 20 min) was “rescued” and the C5a formation ([1]; wt plasma) was “increased”.
